From patent US20220064329A1 (Novo Nordisk, published 2022)

Columns and labels:
Assay in all cases: SPR, ratio of KD to KD of WT
[1] = target: T1, FVII(a) variant P251A (human, UniProt P08709 61-466)
T1 construct: hFVII alanine variant in cell culture supernatant
T1 sequence: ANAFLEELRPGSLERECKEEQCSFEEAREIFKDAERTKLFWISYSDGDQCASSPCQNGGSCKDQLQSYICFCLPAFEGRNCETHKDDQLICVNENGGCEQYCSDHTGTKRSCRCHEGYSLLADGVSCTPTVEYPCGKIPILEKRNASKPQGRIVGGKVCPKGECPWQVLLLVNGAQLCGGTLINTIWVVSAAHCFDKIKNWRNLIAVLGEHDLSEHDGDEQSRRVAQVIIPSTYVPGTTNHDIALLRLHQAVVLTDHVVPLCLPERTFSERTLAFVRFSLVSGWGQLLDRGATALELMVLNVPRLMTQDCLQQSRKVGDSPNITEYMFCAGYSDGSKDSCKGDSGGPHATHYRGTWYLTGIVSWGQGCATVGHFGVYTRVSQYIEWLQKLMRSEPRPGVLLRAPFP
Procedure: (§1) The running buffer was prepared by diluting 10-fold the 10×HBS-P buffer (supplied by GE Healthcare) and supplemented with 1 mg/ml BSA and 5 mM CaCl2 to give 10 mM HEPES, 150 mM NaCl, 0.05% v/v Polysorbate 20, pH 7.4, 5 mM CaCl2, 1 mg/ml bovine serum albumin (BSA). […] Regeneration of the chip was achieved using 10 mM HEPES, 150 mM NaCl, 20 mM EDTA, 0.05 v/v Polysorbate 20, pH 7.4. Binding data were analysed according to a 1:1 Kinetic model and steady state analysis using BiaEvaluation 4.1 supplied by the manufacturer (Biacore AB, Uppsala, Sweden). Wherever possible, ka, kd and KD values from 1:1 kinetic fitting model are reported. […] An amino acid residue is considered a hot-spot residue if substitution of that amino acid residue with alanine results in an affinity reduction of ten (10) fold or more relative to the wild type.

[2] = target: T2, FVII(a) variant S119A (human, UniProt P08709 61-466)
T2 construct: hFVII alanine variant in cell culture supernatant
T2 sequence: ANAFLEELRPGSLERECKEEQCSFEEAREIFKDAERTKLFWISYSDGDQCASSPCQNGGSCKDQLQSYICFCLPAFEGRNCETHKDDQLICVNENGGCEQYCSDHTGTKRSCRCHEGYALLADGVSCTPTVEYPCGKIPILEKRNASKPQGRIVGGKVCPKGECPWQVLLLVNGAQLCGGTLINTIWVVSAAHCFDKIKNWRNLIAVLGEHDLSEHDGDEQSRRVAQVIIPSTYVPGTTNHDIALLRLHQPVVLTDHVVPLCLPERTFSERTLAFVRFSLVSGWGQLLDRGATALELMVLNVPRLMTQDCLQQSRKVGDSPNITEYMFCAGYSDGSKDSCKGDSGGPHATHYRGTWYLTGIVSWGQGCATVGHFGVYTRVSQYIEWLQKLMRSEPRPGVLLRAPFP
Procedure: as §1

[3] = target: T3, FVII(a) variant N184A (human, UniProt P08709 61-466)
T3 construct: hFVII alanine variant in cell culture supernatant
T3 sequence: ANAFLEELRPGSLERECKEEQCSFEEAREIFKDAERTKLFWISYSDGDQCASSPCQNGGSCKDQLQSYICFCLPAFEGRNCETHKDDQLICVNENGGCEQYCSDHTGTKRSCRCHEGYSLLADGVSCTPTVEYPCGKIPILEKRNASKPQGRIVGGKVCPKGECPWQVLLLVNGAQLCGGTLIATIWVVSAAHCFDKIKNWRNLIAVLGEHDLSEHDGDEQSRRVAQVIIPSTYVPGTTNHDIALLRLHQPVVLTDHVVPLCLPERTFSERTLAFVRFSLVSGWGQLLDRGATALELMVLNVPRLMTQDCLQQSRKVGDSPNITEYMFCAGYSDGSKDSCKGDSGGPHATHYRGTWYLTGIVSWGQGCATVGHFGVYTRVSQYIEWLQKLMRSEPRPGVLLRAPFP
Procedure: as §1

[4] = target: T4, FVII(a) variant T130A (human, UniProt P08709 61-466)
T4 construct: hFVII alanine variant in cell culture supernatant
T4 sequence: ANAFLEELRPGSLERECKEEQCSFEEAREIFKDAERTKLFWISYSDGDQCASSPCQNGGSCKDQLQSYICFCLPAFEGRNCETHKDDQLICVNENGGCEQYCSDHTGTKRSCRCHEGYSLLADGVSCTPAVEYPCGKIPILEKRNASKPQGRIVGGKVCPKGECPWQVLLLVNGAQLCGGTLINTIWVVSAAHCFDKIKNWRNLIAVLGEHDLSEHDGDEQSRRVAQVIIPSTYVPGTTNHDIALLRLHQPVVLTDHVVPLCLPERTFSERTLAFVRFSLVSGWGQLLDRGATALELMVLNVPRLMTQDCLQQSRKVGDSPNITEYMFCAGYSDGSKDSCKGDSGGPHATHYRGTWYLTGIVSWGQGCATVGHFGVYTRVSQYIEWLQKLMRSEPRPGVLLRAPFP
Procedure: as §1

[5] = target: T5, FVII(a) variant V252A (human, UniProt P08709 61-466)
T5 construct: hFVII alanine variant in cell culture supernatant
T5 sequence: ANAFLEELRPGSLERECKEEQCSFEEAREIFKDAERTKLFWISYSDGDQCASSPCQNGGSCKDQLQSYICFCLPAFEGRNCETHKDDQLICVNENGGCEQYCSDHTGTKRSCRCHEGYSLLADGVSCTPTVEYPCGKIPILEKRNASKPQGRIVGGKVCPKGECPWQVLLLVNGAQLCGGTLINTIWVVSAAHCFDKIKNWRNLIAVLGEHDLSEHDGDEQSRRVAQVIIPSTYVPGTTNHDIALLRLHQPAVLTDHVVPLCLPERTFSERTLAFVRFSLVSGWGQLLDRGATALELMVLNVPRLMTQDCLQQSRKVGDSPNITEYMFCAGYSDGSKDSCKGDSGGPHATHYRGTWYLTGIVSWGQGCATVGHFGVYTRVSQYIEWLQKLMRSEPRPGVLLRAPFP
Procedure: as §1

B1: mAb0842(OA) (antibody, human IgG4 S228P, kappa)
heavy: QVQLQESGPGLVKPSQTLSLTCTVSGYSISSDSAWSWIRQPPGKGLEWIGYIQYSGSTNYNPSLKSRVTISRDTSKNQFSLKLSSVTAADTAVYYCARSVNYYGNSFAVGYWGQGTLVTVSSASTKGPSVFPLAPCSRSTSESTAALGCLVKDYFPEPVTVSWNSGALTSGVHTFPAVLQSSGLYSLSSVVTVPSSSLGTKTYTCNVDHKPSNTKVDKRVESKYGPPCPPCPAPEFLGGPSVFLFPPKPKDTLMISRTPEVTCVVVDVSQEDPEVQFNWYVDGVEVHNAKTKPREEQFNSTYRVVSVLTVLHQDWLNGKEYKCKVSNKGLPSSIEKTISKAKGQPREPQVYTLPPSQEEMTKNQVSLSCAVKGFYPSDIAVEWESNGQPENNYKTTPPVLDSDGSFFLVSRLTVDKSRWQEGNVFSCSVMHEALHNHYTQKSLSLSLGK
light: EIVLTQSPATLSLSPGERATLSCRASQGISDYLHWYQQKPGEAPRLLIKYTSQPATGIPARFSGSGSGTDFTLTISSLEPEDFAVYYCQNGHSFPLTFGQGTKLEIKRTVAAPSVFIFPPSDEQLKSGTASVVCLLNNFYPREAKVQWKVDNALQSGNSQESVTEQDSKDSTYSLSSTLTLSKADYEKHKVYACEVTHQGLSSPVTKSFNRGEC
chain: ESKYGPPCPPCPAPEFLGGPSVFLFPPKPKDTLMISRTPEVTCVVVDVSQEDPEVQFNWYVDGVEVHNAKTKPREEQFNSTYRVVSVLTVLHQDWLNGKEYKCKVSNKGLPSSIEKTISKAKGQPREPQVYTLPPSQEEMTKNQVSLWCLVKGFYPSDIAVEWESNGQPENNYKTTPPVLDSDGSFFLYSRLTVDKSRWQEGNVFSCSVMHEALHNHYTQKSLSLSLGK
notes: also called monovalent humanized 11F2 antibody; one-armed anti-FVII(a) antibody
**Q.** B1 was tested. Which “Fold diff (Variant/WT)” value [1] did it give?
**A.** 2.8 fold

**Q.** What about the “Fold diff (Variant/WT)” value [2] of the same binder?
**A.** 1 fold

**Q.** What about the “Fold diff (Variant/WT)” value [3] of the same binder?
**A.** 6.3 fold

**Q.** What about the “Fold diff (Variant/WT)” value [4] of the same binder?
**A.** 105 fold

**Q.** What about the “Fold diff (Variant/WT)” value [5] of the same binder?
**A.** 0.9 fold
